In patent publication US20110059015A1 (CONSEJO SUPERIOR DE INVESTIGACIONES CIENTIFICAS CSIC, published 2011):

How the values were obtained:
[1] = molecular target: gp120 of HIV-1 MN strain (on virus) (HIV-1 (MN), UniProt P05877 32-513); experiment: cell-based or functional assay
BSA [2] = molecular target: T1, BSA (Bos taurus, UniProt P02769); experiment: ELISA, soluble Fab on BSA coated wells
T1 construct: commercial serum albumin; also called bovine serum albumin

BSA [3] = molecular target: T1, BSA; experiment: ELISA, soluble Fab of the shuffled HC/LC pair on BSA coated wells
[4] = molecular target: gp120 of HIV-1 RF strain (on virus) (HIV-1 (RF), UniProt P04579 32-519); experiment: cell-based or functional assay
[5] = molecular target: gp120 of HIV-1 SF-2 strain (on virus) (HIV-1 (SF-2), UniProt P03378 32-509); experiment: cell-based or functional assay
BSA [6] = molecular target: T1, BSA; experiment: ELISA, soluble Fab on BSA coated wells; remark: listed apart in the source
BSA [7] = molecular target: T1, BSA; experiment: ELISA, soluble mutant Fab on BSA coated wells
BSA [8] = molecular target: T1, BSA; experiment: ELISA, soluble mutant Fab on BSA coated wells; remark: listed apart in the source
BSA [9] = molecular target: T1, BSA; experiment: ELISA, Fab titration on BSA coated wells

T1 sequence (P02769 25-607 limits assumed): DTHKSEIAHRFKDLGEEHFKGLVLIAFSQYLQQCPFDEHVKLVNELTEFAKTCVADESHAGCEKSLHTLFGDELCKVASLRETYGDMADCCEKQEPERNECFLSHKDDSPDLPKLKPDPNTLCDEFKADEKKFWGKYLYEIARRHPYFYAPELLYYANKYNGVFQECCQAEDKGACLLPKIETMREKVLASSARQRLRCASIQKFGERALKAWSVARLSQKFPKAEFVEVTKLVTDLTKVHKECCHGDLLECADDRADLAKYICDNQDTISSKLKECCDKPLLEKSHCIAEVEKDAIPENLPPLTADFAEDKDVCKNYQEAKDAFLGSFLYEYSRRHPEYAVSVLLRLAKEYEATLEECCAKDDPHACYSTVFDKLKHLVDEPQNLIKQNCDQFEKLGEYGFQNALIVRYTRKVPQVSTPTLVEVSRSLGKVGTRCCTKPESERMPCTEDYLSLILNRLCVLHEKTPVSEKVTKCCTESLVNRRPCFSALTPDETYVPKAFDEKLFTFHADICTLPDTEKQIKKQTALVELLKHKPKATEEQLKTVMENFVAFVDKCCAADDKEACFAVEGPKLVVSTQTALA

B1: Fab S20 (Fab, V domains shown)
VH: LESGGGVVQPGRSLRLSCSASGFSFRDYAMHWVRQAPGKGLEWVAFIWFDGSNERYADSVKGRFTITRDNPKNTLYLQMNSLRVEDTAVYYCVRRGGSILTGFHLDYWGQGTLVTVSS
VL: ELTQSPSSLSASVGDRVTITCRASQGIRDDLGWYQQKPGKAPKRLIYAASNLQSGVPSRFSGGGSGTEFTLTISSLQPEDFATYYCLQHNSYPLTFGGGTKVEIKR
notes: also called IgG Fab S20
In the case of B1, the “% neutralisation of HIV-1 MN, NPA in MT-4 cells, at 20 µg/ml Fab” value [1] is reported as 90% and the binding result (BSA [2]) is reported as “no binding (tested: not given on the sheet)”.

B2: S20/S8 (Fab, V domains shown)
VH: LESGGGVVQPGRSLRLSCSASGFSFRDYAMHWVRQAPGKGLEWVAFIWFDGSNERYADSVKGRFTITRDNPKNTLYLQMNSLRVEDTAVYYCVRRGGSILTGFHLDYWGQGTLVTVSS
VL: ELTQSPSSLSASVGDRVTITCRASQGIRDDLGWYQQKPGKAPKRLIYAASNLQSGVPSRFSGGGSGTEFTLTISSLQPEDFATYYCLQHNSYPLTFGGGTKVEIKR
notes: also called S20 heavy chain paired with S8 light chain
B2: no binding (tested: not given on the sheet) (BSA [3]).

B3: Fab S8 (Fab, V domains shown)
VH: LESGGGLVKPGGSLRLSCAASGFTFSSYAMHWVRQAPGKGLEWVAFIWFDGSNERYADSVKGRFTITRDNPKNTLYLQMNSLRVEDTAVYYCVRRGGSILTGFHLDYWGQGTLVTVSS
VL: ELTQSPSSLSASVGDRVTITCRASQGIRDDLGWYQQKPGKAPKRLIYAASNLQSGVPSRFSGGGSGTEFTLTISSLQPEDFATYYCLQHNSYPLTFGGGTKVEIKR
notes: also called IgG Fab S8; S8 Fab
With B3 the “% neutralisation, IRA in MT-2 cells, at 1 µg/ml Fab S8” value (shortened to “% neutralisation … at 1 µg/ml Fab S8”) [4] was 50%, the “% neutralisation, IRA in MT-2 cells, at 10 µg/ml Fab S8” value (from here on “% neutralisation … at 10 µg/ml Fab S8”) [4] was > 90% and the “% neutralisation … at 1 µg/ml Fab S8” value [5] was 50%. The “% neutralisation … at 10 µg/ml Fab S8” value [5] was > 90%, the “% neutralisation of HIV-1 MN, NPA in MT-4 cells, at 20 µg/ml Fab” value [1] was 90% and the “% neutralisation … at 1 µg/ml Fab S8” value [1] was 50%. The “% neutralisation … at 10 µg/ml Fab S8” value [1] was > 90% and the binding result (BSA [6]) was “no binding (tested: not given on the sheet)”.

B4: mutant Fab S895K (Fab, V domains shown)
VH: LESGGGLVKPGGSLRLSCAASGFTFSSYAMHWVRQAPGKGLEWVAFIWFDGSNERYADSVKGRFTITRDNPKNTLYLQMNSLRVEDTAVYYCVRKGGSILTGFHLDYWGQGTLVTVSS
VL: ELTQSPSSLSASVGDRVTITCRASQGIRDDLGWYQQKPGKAPKRLIYAASNLQSGVPSRFSGGGSGTEFTLTISSLQPEDFATYYCLQHNSYPLTFGGGTKVEIKR
B4: no binding (tested: not given on the sheet) (BSA [7]).

B5: mutant Fab S2095K (Fab, V domains shown)
VH: LESGGGVVQPGRSLRLSCSASGFSFRDYAMHWVRQAPGKGLEWVAFIWFDGSNERYADSVKGRFTITRDNPKNTLYLQMNSLRVEDTAVYYCVRKGGSILTGFHLDYWGQGTLVTVSS
VL: ELTQSPSSLSASVGDRVTITCRASQGIRDDLGWYQQKPGKAPKRLIYAASNLQSGVPSRFSGGGSGTEFTLTISSLQPEDFATYYCLQHNSYPLTFGGGTKVEIKR
B5: no binding (tested: not given on the sheet) (BSA [8]).

B6: Fab S19 (Fab, V domains shown)
VH: LESGGGVVQPGRSLRLSCAASGFSFSSHGMHWVRQAPGKGLEWVAFIWFDGSNERYADSVKGRFTITRDNPKNTLYLQMNSLRVEDTAVYYCVRRGGSILTGFHLDYWGQGTLVTVSS
VL: ELTQSPSSLSASVGDRVTITCRASQGIRDDLGWYQQKPGKAPKRLIYAASNLQSGVPSRFSGGGSGTEFTLTISSLQPEDFATYYCLQHNSYPLTFGGGTKVEIKR
notes: also called IgG Fab S19
B6: no binding (tested: about 10 µg/ml) (BSA [9]).

B7: Fab S8 HCDR3 mutant Arg95 to Asp (Fab, V domains shown)
VH: LESGGGLVKPGGSLRLSCAASGFTFSSYAMHWVRQAPGKGLEWVAFIWFDGSNERYADSVKGRFTITRDNPKNTLYLQMNSLRVEDTAVYYCVRDGGSILTGFHLDYWGQGTLVTVSS
VL: ELTQSPSSLSASVGDRVTITCRASQGIRDDLGWYQQKPGKAPKRLIYAASNLQSGVPSRFSGGGSGTEFTLTISSLQPEDFATYYCLQHNSYPLTFGGGTKVEIKR
B7: no binding (tested: not given on the sheet) (BSA [7]).

B8: S2095 P (Fab, V domains shown)
VH: LESGGGVVQPGRSLRLSCSASGFSFRDYAMHWVRQAPGKGLEWVAFIWFDGSNERYADSVKGRFTITRDNPKNTLYLQMNSLRVEDTAVYYCVRPGGSILTGFHLDYWGQGTLVTVSS
VL: ELTQSPSSLSASVGDRVTITCRASQGIRDDLGWYQQKPGKAPKRLIYAASNLQSGVPSRFSGGGSGTEFTLTISSLQPEDFATYYCLQHNSYPLTFGGGTKVEIKR
B8: no binding (tested: not given on the sheet) (BSA [8]).

B9: Fab S8 HCDR3 mutant Arg95 to Gly (Fab, V domains shown)
VH: LESGGGLVKPGGSLRLSCAASGFTFSSYAMHWVRQAPGKGLEWVAFIWFDGSNERYADSVKGRFTITRDNPKNTLYLQMNSLRVEDTAVYYCVRGGGSILTGFHLDYWGQGTLVTVSS
VL: ELTQSPSSLSASVGDRVTITCRASQGIRDDLGWYQQKPGKAPKRLIYAASNLQSGVPSRFSGGGSGTEFTLTISSLQPEDFATYYCLQHNSYPLTFGGGTKVEIKR
B9: no binding (tested: not given on the sheet) (BSA [7]).
